Target: T1, Estrogen receptor alpha (ERα) (UniProt P03372 1-595, limits assumed)
T1 sequence (looked up): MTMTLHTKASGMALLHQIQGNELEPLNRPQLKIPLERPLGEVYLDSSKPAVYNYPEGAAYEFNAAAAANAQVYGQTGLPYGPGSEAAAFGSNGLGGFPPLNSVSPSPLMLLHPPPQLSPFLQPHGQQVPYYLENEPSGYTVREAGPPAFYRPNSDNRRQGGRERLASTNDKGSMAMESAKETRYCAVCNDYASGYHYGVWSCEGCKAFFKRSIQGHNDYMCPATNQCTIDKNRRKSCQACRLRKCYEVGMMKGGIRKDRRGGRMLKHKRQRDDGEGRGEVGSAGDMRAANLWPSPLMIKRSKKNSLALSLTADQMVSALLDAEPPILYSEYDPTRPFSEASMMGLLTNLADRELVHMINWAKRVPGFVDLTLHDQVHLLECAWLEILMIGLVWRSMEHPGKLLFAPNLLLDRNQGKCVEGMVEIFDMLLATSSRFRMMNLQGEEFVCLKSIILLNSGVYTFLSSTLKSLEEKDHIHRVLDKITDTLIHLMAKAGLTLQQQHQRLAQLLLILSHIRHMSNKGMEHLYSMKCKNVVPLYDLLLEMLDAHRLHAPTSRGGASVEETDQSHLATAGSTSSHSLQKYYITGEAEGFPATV
Test: cell-based or functional assay

B1: WBP2 Y192-231F phospho-defective double mutant, V5-tagged (other, not shown: small tags and cut ends)
chain: MALNKNHSEGGGVIVNNTESILMSYDHVELTFNDMKNVPEAFKGTKKGTVYLTPYRVIFLSKGKDAMQSFMMPFYLMKDCEIKQPVFGANYIKGTVKAEAGGGWEGSASYKLTFTAGGAIEFGQRMLQVASQASRGEVPSGAYGYSYMPSGAYVYPPPVANGMYPCPPGYPYPPPPPEFYPGPPMMDGAMGFVQPPPPPYPGPMEPPVSGPDVPSTPAAEAKAAEAAASAFYNPGNPHNVYMPTSQPPPPPYYPPEDKKTQ
Q: For B1, which “ERα reporter activity (ERE-luciferase), loss of coactivator activity relative to vector and compared to WBP2” value is on record?
A: The value was roughly 60%.
